Values joined by “and” are separate entries in the source; they are usually repeats but may differ in a detail not shown here. Equal values may be shown once. “Also recorded” adds a separate entry of the source.
Tests used:
CatD [1] = target: T1, CatD (Homo sapiens, UniProt P07339); experiment: Competitive inhibition of CatD activity, fluorogenic substrate (fluorescence dequenching); format: biochemical; details: mean ± SEM of 4–8 replicates (Fig. 4f)
T1 construct: purchased Enzo Life Sciences
Experimental: To address this, we tested the extent to which different peptides at identical concentrations inhibited CatD activity monitored with a fluorogenic substrate.
For the determination of the pH dependence of Aβ degradation in soluble brain extracts, freshly harvested brain tissue from 15-day-old mice was dissociated in 20 mM Tris-HCl, pH 7.4 at 4 °C using a Dounce homogenizer, then centrifuged at 1000×g. The resulting supernatant was diluted 1:20 in Britton-Robinson buffers of different pHs, and CatD activity was quantified either using a well-characterized fluorescence polarization-based Aβ degradation assay as described or by monitoring hydrolysis of the CatD-specific fluorogenic substrate, Mca-[…]-Dnp. Kinetic experiments were conducted using freshly prepared, monomeric Aβ peptides separated from aggregated species by size-exclusion chromatography (SEC) and characterized as described. Aβ peptides and PepA were diluted in neutral Dilution Buffer (20 mM Tris, pH 8.0 supplemented with 0.1% BSA), with addition of DMSO as appropriate, and reactions were initiated by transfer into Assay Buffer (60 mM Na-citrate; 80 mM Na2HPO4, pH 4.0; Sigma) supplemented with purified human CatD (Enzo Life Sciences). Where required, reactions were terminated by adjustment to neutral pH with 10× Stop Buffer (0.2 M Tris-HCL, pH 9.5 supplemented with 10 μM PepA). […] Competitive inhibition experiments were conducted using either ELISAs, an Aβ-degradation assay or the fluorogenic substrate.

[2] = target: T2, insulin-degrading enzyme (IDE) (Mus musculus, UniProt Q9JHR7); experiment: Aβ-degrading activity in soluble brain extracts at neutral pH; format: biochemical; details: 15-day-old mice; excess insulin; pH 7.5 to 9.5
T2 construct: freshly harvested brain tissue from 15-day-old mice was dissociated in 20 mM Tris-HCl, pH 7.4; from tissue; host or cells: mouse brain, soluble extract (15-day-old mice)
From the text: (§1) As an initial step towards elucidating the role of CatD in Aβ proteostasis, we quantified rates of Aβ degradation in vitro in soluble brain extracts from CatD-KO mice and wild-type controls as a function of pH, focusing on extracts from 15-day-old mice, due to the premature lethality of CatD-KO mice that occurs by ~ 4 weeks of age. Consistent with previous results, Aβ-degrading activity was present principally within two pH ranges: at neutral pH (pH 7.5 to 9.5) and—to a considerably larger extent—also at acidic pH (pH 2.5 to 4.5) (Fig. 1a). The Aβ-degrading activity at neutral pH was inhibited by excess insulin and reflects the activity of the neutral protease insulin-degrading enzyme (IDE), as shown previously by McDermott and Gibson. […] To extend and confirm these findings, we quantified Aβ degradation at pH 4.0 in soluble brain extracts from CatD-KO and WT mice, as well as heterozygous null (CatD-HET) mice (Fig. 1b). […] Consistent with this, levels of both preprocathepsin D and mature CatD protein in the CatD-HET animals were also determined to be > 50% of WT levels (Fig. 1c, d), with mature CatD protein being reduced by only 26.0 ± 14.2% relative to WT controls (p > 0.05; Fig. 1d). […]

[3] = target: Cathepsin D (purified human CatD, Enzo Life Sciences) (human) (UniProt P07339)
CatD [4] = target: T3, CatD (Mus musculus, UniProt P18242); experiment: Aβ-degrading activity in soluble brain extracts at pH 4.0; format: biochemical; details: 15-day-old mice, 4 replicates
T3 construct: freshly harvested brain tissue from 15-day-old mice was dissociated in 20 mM Tris-HCl, pH 7.4; from tissue; host or cells: mouse brain, soluble extract (15-day-old WT and CatD-HET mice)
From the text: as §1

T1 sequence (P07339 65-412): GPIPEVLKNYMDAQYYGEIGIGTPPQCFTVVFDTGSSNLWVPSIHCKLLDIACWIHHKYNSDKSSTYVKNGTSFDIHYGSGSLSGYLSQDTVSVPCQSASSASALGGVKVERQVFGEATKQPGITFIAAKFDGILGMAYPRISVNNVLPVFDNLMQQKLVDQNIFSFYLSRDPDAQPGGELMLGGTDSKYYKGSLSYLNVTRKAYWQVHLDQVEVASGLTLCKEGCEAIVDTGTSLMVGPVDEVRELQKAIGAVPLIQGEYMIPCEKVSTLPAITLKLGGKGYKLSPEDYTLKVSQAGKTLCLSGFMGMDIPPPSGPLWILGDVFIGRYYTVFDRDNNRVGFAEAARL
T3 sequence (P18242 65-410): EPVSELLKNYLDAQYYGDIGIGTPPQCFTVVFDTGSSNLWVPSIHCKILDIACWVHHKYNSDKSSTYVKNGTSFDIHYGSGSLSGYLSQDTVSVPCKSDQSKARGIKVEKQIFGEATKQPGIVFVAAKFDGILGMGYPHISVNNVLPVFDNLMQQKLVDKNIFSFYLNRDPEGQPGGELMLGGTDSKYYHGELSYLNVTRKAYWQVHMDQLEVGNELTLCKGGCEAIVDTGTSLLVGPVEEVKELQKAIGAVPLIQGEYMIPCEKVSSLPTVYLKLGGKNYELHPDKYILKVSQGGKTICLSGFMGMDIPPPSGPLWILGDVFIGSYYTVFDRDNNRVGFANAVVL
T2 sequence (Q9JHR7 whole entry): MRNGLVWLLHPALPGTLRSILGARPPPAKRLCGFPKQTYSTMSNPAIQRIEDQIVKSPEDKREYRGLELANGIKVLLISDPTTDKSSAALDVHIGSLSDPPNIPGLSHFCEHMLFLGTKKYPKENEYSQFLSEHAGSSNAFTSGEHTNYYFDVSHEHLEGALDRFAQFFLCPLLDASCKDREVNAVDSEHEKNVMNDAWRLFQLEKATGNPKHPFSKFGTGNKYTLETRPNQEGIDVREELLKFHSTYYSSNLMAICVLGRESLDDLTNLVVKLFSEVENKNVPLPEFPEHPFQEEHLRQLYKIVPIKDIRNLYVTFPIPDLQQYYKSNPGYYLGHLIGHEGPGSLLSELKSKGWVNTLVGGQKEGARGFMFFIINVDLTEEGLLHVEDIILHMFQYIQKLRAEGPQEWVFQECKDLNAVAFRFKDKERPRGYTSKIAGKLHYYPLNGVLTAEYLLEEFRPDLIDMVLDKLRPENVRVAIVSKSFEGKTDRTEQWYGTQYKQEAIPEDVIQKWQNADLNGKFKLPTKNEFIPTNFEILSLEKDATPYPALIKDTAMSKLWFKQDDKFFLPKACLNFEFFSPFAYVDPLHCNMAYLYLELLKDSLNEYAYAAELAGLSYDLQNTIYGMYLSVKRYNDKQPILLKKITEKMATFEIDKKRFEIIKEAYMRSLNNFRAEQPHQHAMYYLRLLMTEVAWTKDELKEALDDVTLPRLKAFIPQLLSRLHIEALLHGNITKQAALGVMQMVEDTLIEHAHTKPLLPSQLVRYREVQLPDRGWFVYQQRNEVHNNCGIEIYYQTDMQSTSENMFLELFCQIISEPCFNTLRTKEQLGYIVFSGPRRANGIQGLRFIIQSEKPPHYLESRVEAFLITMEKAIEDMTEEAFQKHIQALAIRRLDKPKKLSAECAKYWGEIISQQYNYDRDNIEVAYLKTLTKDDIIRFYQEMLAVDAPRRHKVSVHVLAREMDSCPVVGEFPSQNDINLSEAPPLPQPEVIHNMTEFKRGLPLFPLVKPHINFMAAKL

| Substance | inhibition of CatD activity at 1 μM peptide (CatD [1]) | other results |
| --- | --- | --- |
| Aβ(33–40): C-terminal fragment corresponding to Aβ(33–42), ending at position 40 (GLMVGGVV; Amyloid-beta protein 40; UniProt P05067 704-711, looked up, fragment) | modest but statistically significant inhibition | – |
| insulin | – | inhibition of Aβ-degrading activity at neutral pH in brain extracts [2]: inhibited |
| rodent Aβ42: full-length murine Aβ ending at position 42 (DAEFGHDSGFEVRHQKLVFFAEDVGSNKGAIIGLMVGGVVIA) | > 90% | inhibition of CatD activity at 1 μM peptide (CatD [1]; listed as mAβ(1–42)): strongly inhibited |
| full-length murine Aβ (mAβ(1–42)) (from UniProt P12023 672-713) (peptide) | – | inhibition of CatD activity (fluorogenic substrate) by 1 μM peptide [3]: > 90% |
| pepstatin A | – | inhibition of Aβ-degrading activity in WT and CatD-HET brain extracts (CatD [4]): largely inhibited; also recorded: inhibited almost completely |

Second part, led by results:

| inhibition of CatD activity at 1 μM peptide (CatD [1]) | Substance | other results |
| --- | --- | --- |
| failed to inhibit significantly | Aβ(33–42): short C-terminal fragment of Aβ42 (GLMVGGVVIA; Amyloid-beta protein 42; UniProt P05067 704-713, looked up, fragment) | – |
| strongly inhibited and > 90% | Aβ(17–42): α-secretase-derived p3 fragment of APP ending at position 42 (LVFFAEDVGSNKGAIIGLMVGGVVIA; Amyloid-beta protein 42; UniProt P05067 688-713, looked up, fragment) | – |
